We go through two molecules from publication PMC6242696 (Cell, 2018).

For series [1], the target named is T1, GDP/GTP carrier Ggc1 (containing the mutation C222S), C-terminal 6xHis-tag (Saccharomyces cerevisiae, C222S (stands in the printed letters)).
T1 chain: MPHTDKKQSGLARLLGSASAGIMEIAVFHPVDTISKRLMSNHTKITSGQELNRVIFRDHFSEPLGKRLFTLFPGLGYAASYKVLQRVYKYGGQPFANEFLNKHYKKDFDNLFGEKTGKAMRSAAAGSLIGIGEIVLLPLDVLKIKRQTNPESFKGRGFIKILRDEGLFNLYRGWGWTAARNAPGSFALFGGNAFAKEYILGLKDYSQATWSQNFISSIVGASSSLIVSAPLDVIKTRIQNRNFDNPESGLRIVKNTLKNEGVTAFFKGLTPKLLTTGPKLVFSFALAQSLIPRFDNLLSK
The series is described as follows: AUC + other: diffusion-ordered NMR.

In series [2] the target is Aac3(2TM), comprising transmembrane helices 2 and 3 (residues 50-180), N-terminal 6xHis-Tag. The series is described as follows: AUC + other: diffusion-ordered NMR.
For series [3], the target named is T1, GDP/GTP carrier Ggc1 (containing the …). The experiment in a line: SAXS with online Ni-NTA purification.
The series “SEC” concerns the molecule itself. The experiment in a line: SEC. (In gel filtration, larger molecules generally elute earlier.)
Series [4] deals with T2, Tim10 V29K (subunit of the mutant complex) (Saccharomyces cerevisiae, UniProt P87108 2-93, V29K).
T2 sequence (looked up): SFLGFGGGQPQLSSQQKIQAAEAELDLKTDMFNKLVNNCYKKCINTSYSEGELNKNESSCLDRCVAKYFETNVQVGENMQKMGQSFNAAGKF
The series is described as follows: SEC.

Series [5] has as its target T3, Tim10 M32K (subunit of the mutant complex) (Saccharomyces cerevisiae, UniProt P87108 2-93, M32K).
T3 sequence (looked up): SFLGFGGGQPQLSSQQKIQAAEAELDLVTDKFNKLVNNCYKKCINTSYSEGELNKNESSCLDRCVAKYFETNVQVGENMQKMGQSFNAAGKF
The experiment in a line: SEC.

B1: TIM9⋅10 chaperone complex (hexamer of Tim9 and Tim10), wild type (complex, Saccharomyces cerevisiae)
chain 1: MDALNSKEQQEFQKVVEQKQMKDFMRLYSNLVERCFTDCVNDFTTSKLTNKEQTCIMKCSEKFLKHSERVGQRFQEQNAALGQGLGR
chain 2: GSFLGFGGGQPQLSSQQKIQAAEAELDLVTDMFNKLVNNCYKKCINTSYSEGELNKNESSCLDRCVAKYFETNVQVGENMQKMGQSFNAAGKF
As for B1, the “stoichiometry N” value in series [1] was 2 TIM9⋅10 hexamers per precursor protein; in series [2], 1 TIM9⋅10 hexamer per precursor chain; in series [3], 2 TIM9⋅10 hexamers per Ggc1.

B2: Tim9 (individual subunit) (natural protein, Saccharomyces cerevisiae)
chain: MDALNSKEQQEFQKVVEQKQMKDFMRLYSNLVERCFTDCVNDFTTSKLTNKEQTCIMKCSEKFLKHSERVGQRFQEQNAALGQGLGR
As for B2, in the series “SEC”, the “stoichiometry N” value is 2. Moreover, the binding result in series [4] and in series [5] was “binds” in each case.

By stoichiometry N is commonly meant a count of units in the complex or per binding partner.
